Measured values published in patent US20230065377A1.
Where “and” joins values, the source holds several entries; their conditions need not be identical. Equal entries are not always repeated. Where two headings read alike, the source gives them in different places.

Columns and labels:
[1] = target: Eastern equine encephalitis virus (EEEV) strain FL93-939 (Eastern equine encephalitis virus, strain FL93-939)
[2] = target: Eastern equine encephalitis virus (EEEV) strain FL93-939 (Eastern equine encephalitis virus, strain FL93-939); remark: listed apart in the source
[3] = target: Recombinant EEEV E2 glycoprotein (E3E2) (strain V105; IBT Bioservices) (Eastern equine encephalitis virus, strain V105); test: ELISA, mAb on coated recombinant E2
[4] = target: Eastern equine encephalitis virus (EEEV) strain FL93-939 (Eastern equine encephalitis virus, strain FL93-939); remark: listed apart in the source

Row | Binder | IC50, neutralization, CPE assay [1] | IC50, neutralization, PRNT [2] | EC50 [3] | IC50, neutralization, PRNT [4]
1 | EEEV-147 (antibody, V domains shown) VH: QVQLVQSGAEVKKPGASVKVSCKASGYTFTNYGITWVRQAPGQGLEWMGWISAYNGNTDYAQKLQGRVTMTTDTSTSTAYMELGSLRSDDTAVYYCARELWFGDLGYWGQGTLVTVSS VL: EIVLTQSPGTLSLSPGERATLSCRASQSVSRSSSSYLAWYQQKPGQAPRLLIYGASSRATGIPDRFSGSGSGTDFTLTISRLEPEDVAVYYCQQYGSSPQTFGQGTKLEIK | < 1 µg/mL | – | – | –
2 | EEEV-143 (antibody, V domains shown) VH: QVQLVESGGGVVQPGRSLRLSCAASGFTFSNYGIHWVRQAPGKGLEWVAVISYDGRHKYIADPVKGRFTISRDNSKNMLYLQMNSLRTEDTAVYYCAKDTSGWYEFFDSWGQGIPVTVSS VL: EIVMTQSPATLSVSPGERATLSCRASQSVATNVAWYQQKPGQAPRLLIYGASTRATGIPARFSGSGSGTEFTLTISSLQSEDFAVYYCQQCNDWLTFGQGTKVEIK | – | 0.315 nM | – | –
3 | EEEV-33 (antibody, V domains shown) VH: QVTLKESGPALVKPTQTLTLTCTFSGFSLSTSGMRVSWIRQPPGKALEWLARIDWDDDKFYSTSLKTRLTISKDTSKNQVVLRMTNMDPVDTATYYCARILPGYCSGGSCYYNYHFDYWGQGTLVTVSS VL: SYVLTQPPSVSVAPGQTARITCGGNNIGSKSVHWYQQKPGQAPVLVVYHDSDRPSGIPERFSGSNSGNTATLTISRVEAGDEADYYCQVWDSSSDPYVFGTGTKVTVL | < 0.01 µg/mL | – | < 4 nM and < 1.2 µg/mL | < 0.037 nM
